From US20210355235A1, “Compositions and Methods For Treating Cancer with Anti-Renalase antibodies and Anti-PD1 antibodies” (YALE UNIVERSITY, priority 2017, published 2021)

What was measured:
Assay type in all cases: cell-based, human
[1] = test system: MiaPaCa2 cells; experiment: FACS cell cycle analysis with rRNLS; settings: 30 μg/ml
Description: For cell cycle analysis, cultured cells were dissociated using 10 mM EDTA, fixed with ice-cold 70% ethanol, digested with RNAse A, and stained with propidium iodide. Propidium staining was detected using a BD FACSCalibur flow cytometer (BD Biosciences, San Jose, Calif., USA), and analyzed using CellQuest software.

[2] = test system: A375.S2, MeWo, SkMel5 and SkMel28 cells; experiment: survival of serum-starved melanoma cells, WST-1; settings: 30 ug/ml, 72 hrs
Description: Total cell number and percentage of live cells were assessed by trypan blue exclusion, and cells were counted using a BioRad TC10 automated cell counter. For additional studies, cell viability was determined using WST-1 reagent (Roche Diagnostics, Indianapolis, Ind., USA) according to the manufacturers' instruction. Absorbances were read using a microplate reader (Power Waves XS, BioTek Instruments, Winooski, Vt., USA).
RNLS-mediated signaling is anti-apoptotic, and protects normal cells exposed to toxic stress from apoptotic death (Wang et al., 2014 J Am Soc Nephrol.; Lee et al., 2013 J Am Soc Nephrol. 24:445-55). To explore if RNLS signaling favored the survival of cancer cells, either recombinant RNLS (rRNLS) or bovine serum albumin (BSA) was added to serum-starved melanoma cells (A375.S2, MeWo, SkMel5, and SkMel28) in culture, and cell viability was determined. […] The total cell number and percentage of live cells of those treated with RNLS were counted to determine if the apparent increase in proliferative rate was due an increase in cell proliferation or to a decrease in the rate of apoptosis.

[3] = test system: Panc1 cells; experiment: western blot of p38 and STAT3 phosphorylation
Description: FIG. 27, comprising FIGS. 27A through 27E, is a series of images and charts showing the interaction between RNLS and STAT3, and the mechanistic model of inhibition by m28-RNLS. FIG. 27A is an image showing activation of STAT3 by RNLS in Panc1 cells; Panc1 cells in culture treated with either BSA or RNLS, and STAT3 phosphorylation assessed by western blot; p-Ser^727-STAT3: phosphorylation at serine 727, p-Y^705-STAT3: phosphorylation at tyrosine 705; representative study. FIG. 27B is a chart depicting the quantification of STAT3 phosphorylation with RNLS; signals normalized to total STAT3; n=3, *=P<0.05. […] FIG. 27D is a chart showing the quantification of STAT3 phosphorylation with m28-RNLS; signals normalized to GAPDH loading control; n=3, *=P<0.05. FIG. 27E depicts the proposed mechanistic model for antitumor activity of m28-RNLS.

[4] = test system: HK-2 cells; experiment: STAT phosphorylation in HK-2 cells treated with RNLS
Description: STAT3 binds to the promoter region of the RNLS gene and increases its expression (Sonawane et al., 2014 Biochemistry. 53(44):6878-6892).

B1: rRNLS: recombinant human RNLS (renalase) (protein, UniProt Q5VYX0 18-342, looked up)
Renalase: ALLRRQTSGPLYLAVWDKAEDSGGRMTTACSPHNPQCTADLGAQYITCTPHYAKKHQRFYDELLAYGVLRPLSSPIEGMVMKEGDCNFVAPQGISSIIKHYLKESGAEVYFRHRVTQINLRDDKWEVSKQTGSPEQFDLIVLTMPVPEILQLQGDITTLISECQRQQLEAVSYSSRYALGLFYEAGTKIDVPWAGQYITSNPCIRFVSIDNKKRNIESSEIGPSLVIHTTVPFGVTYLEHSIEDVQELVFQQLENILPGLPQPIATKCQKWRHSQVTNAAANCPGQMTLHHKPFLACGGDGFTQSNFDGCITSALCVLEALKNYI
- cell cycle progression compared to BSA [1]: no effect on cell cycle progression
- survival of serum-starved melanoma cells compared to BSA [2]: markedly increased the survival
- phosphorylated STAT3 (p-Ser727-STAT3 and p-Y705-STAT3) after RNLS [3]: rapid increase
- STAT1 [4]: unaffected
- increase of STAT3 phosphorylation at serine 727 (p-Ser727-STAT3) [4]: 2 fold
- increase of STAT3 phosphorylation at tyrosine 705 (p-Y705-STAT3) [4]: 4 fold
